Drawing on PMC4199230, this text covers percent reduction of binding against WT VCP for 3 substances.

The assay deals with 6X-His-PTPROt-CS/DA. Put plainly: pull-down.
In the case of “HA-tagged VCP Y796F/Y805F (from UniProt P55072 1-806) (natural protein)”, the percent reduction of binding against WT VCP was > 90%.

“HA-tagged VCP Y805F (from UniProt P55072 1-806) (natural protein)”: the percent reduction of binding against WT VCP was > 90%.

“HA-tagged VCP Y796F (from UniProt P55072 1-806) (natural protein)” displayed a percent reduction of binding against WT VCP of 50%.
